From patent US20180066015A1, “INHIBITORS OF GROWTH FACTOR ACTIVATION ENZYMES” (Washington University, published 2018) come the findings set out here.

Read-outs that look alike come from different tables or passages of the source. *: point of attachment. Kbt = ketobenzothiazole, c1ccc2sc(*)nc2c1; kt = C-terminal ketothiazole, c1csc(*)n1

The target of one test is T1, Boc-QAR-AMC.
T1 sequence (peptide, N-terminal Boc; C-terminal AMC): QAR

Test [1] concerns the target Ac-Ala-Arg-Leu-P1-ACC, P1 = L-Leu (L).
The target in test [2] is Ac-Ala-Arg-Leu-P1-ACC, P1 = L-Asp (D).
Test [3] concerns the target Ac-Ala-Arg-Leu-P1-ACC, P1 = L-Pro (P).
Test [4] concerns the target Ac-Ala-Arg-Leu-P1-ACC, P1 = L-Ile (I).
Test [5] addresses Ac-Ala-Arg-Leu-P1-ACC, P1 = L-Ala (A).
For test [6], the target named is Ac-Ala-Arg-Leu-P1-ACC, P1 = L-Glu (E).
In test [7] the target is Ac-Ala-Arg-Leu-P1-ACC, P1 = L-Ser (S).
For test [8], the target named is Ac-Ala-Arg-Leu-P1-ACC, P1 = L-Thr (T).
Test [9] addresses Ac-Ala-Arg-Leu-P1-ACC, P1 = L-Gln (Q).
Test [10] addresses Ac-Ala-Arg-Leu-P1-ACC, P1 = L-Trp (W).
Test [11] deals with Ac-Ala-Arg-Leu-P1-ACC, P1 = L-Tyr (Y).
Test [12] deals with Ac-Ala-Arg-Leu-P1-ACC, P1 = L-Phe (F).
The target in test [13] is Ac-Ala-Arg-Leu-P1-ACC, P1 = L-Lys (K).
Test [14] deals with Ac-Ala-Arg-Leu-P1-ACC, P1 = L-Met (M).
Test [15] has as its target Ac-Ala-Arg-Leu-P1-ACC, P1 = L-Asn (N).
Test [16] has as its target Ac-Ala-Arg-Leu-P1-ACC, P1 = L-His (H).
Test [17] addresses Ac-Ala-Arg-Leu-P1-ACC, P1 = Gly (G).
The target of test [18] is Ac-Ala-Arg-Leu-P1-ACC, P1 = L-Val (V).
Test [19] concerns the target recombinant thrombin. In words: chromogenic inhibition assay.
In test [20] the target is Factor Xa. In words: chromogenic inhibition assay.
For test [21], the target named is Hepatocyte Growth Factor Activator (HGFA) serine protease domain, N-terminal His-tag, recombinant (Homo sapiens (Human)) (UniProt Q04756). The test is described as follows: fluorogenic inhibition assay.
Test [22] shares this target.
The target in test [23] is T2, matriptase (Charles Craik, UCSF), recombinant (Homo sapiens (Human)) (UniProt Q9Y5Y6).
T2 sequence: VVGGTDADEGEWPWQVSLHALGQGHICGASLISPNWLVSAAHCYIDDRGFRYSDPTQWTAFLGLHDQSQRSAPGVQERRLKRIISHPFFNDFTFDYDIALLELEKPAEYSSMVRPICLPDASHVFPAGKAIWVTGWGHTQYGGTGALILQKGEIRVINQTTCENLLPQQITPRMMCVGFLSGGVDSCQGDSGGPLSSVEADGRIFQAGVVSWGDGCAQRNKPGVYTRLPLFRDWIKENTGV

The target in test [24] is Recombinant human hepsin (4776-SE-010, R&D Systems), activated (human) (UniProt P05981).
In test [25] the target is T3, matriptase (Charles Craik, UCSF), recombinant (Homo sapiens (Human), UniProt Q9Y5Y6).
T3 sequence: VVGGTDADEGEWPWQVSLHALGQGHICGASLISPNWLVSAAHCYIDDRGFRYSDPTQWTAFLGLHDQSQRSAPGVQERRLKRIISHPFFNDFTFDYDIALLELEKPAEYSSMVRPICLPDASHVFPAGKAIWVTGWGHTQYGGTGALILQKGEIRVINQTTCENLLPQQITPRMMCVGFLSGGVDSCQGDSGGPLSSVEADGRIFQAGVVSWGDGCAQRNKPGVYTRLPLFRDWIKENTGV
In words: fluorogenic inhibition assay. As to the method: (§1) Inhibitors (11-pt serial dilutions, 0-20 μM final concentration in reaction) were serially diluted in DMSO (2% DMSO final concentration) and then mixed with either recombinant serine protease domain of HGFA [Z. Han, P. K. Harris, D. E. Jones, R. Chugani, T. Kim, M. Agarwal, W. Shen, S. A. Wildman, J. W. Janetka, Acs Med Chem Lett 2014, 5, 1219-1224], matriptase (Charles Craik, UCSF) or hepsin* (#4776-SE-010, R&D Systems, Minneapolis, Minn.) in black 384 well plates (Corning #3575. Corning, N.Y.). […] The final substrate concentrations for all assays were at the Kₘ for the respective enzymes. Changes in fluorescence (excitation at 380 nm and emission at 460 nm) were measured at room temperature over time in a Biotek Synergy 2 plate reader (Winnoski, Vt.). Using GraphPad Prism version 6.04 software program, (GraphPad Software, San Diego, Calif., www.graphpad.com), a four parameter curve fit was used to determine the inhibitor IC₅₀s from a plot of the mean reaction velocity versus the inhibitor concentration. The IC₅₀ values represent the average of three separate experimental determinations.

Test [26] deals with T4, Recombinant human hepsin (4776-SE-010, R&D Systems), activated (human, UniProt P05981). The test is described as follows: fluorogenic inhibition assay. As to the method: as §1
In test [27] the target is Hepatocyte Growth Factor Activator (HGFA) serine protease domain, N-terminal His-tag, recombinant (Homo sapiens (Human)) (UniProt Q04756). In words: fluorogenic inhibition assay. This is another data set of the same source.
Test [28] deals with T3, matriptase (Charles Craik, UCSF), …. In words: fluorogenic inhibition assay. As to the method:
as §1
(§2) Fluorescent inhibitor and chromogenic proteolytic assays were performed in general accordance with the procedures described in Example 4 for compounds prepared in Examples 5 and 6.
This is another data set of the same source.

For test [29], the target named is T4, Recombinant human hepsin (4776-SE-010, …). The test is described as follows: fluorogenic inhibition assay. As to the method:
as §1, §2
This is another data set of the same source.

For a further test, the target named is Trypsin. In words: selectivity inhibition assay.
In test [30] the target is recombinant thrombin. In words: selectivity inhibition assay.
In test [31] the target is Factor Xa. The test is described as follows: selectivity inhibition assay.

“Recombinant human hepsin (4776-SE-010, R&D Systems), activated (from UniProt P05981) (enzyme)”: the Km of fluorogenic substrate with Boc-QAR-AMC came out at 156 µM. Also, the % activity, P1 position in [1] turned out to be 0.03%; in test [2] it was 0%; in [3] it was 0.04%; in [4] it was 0.08%; in test [5] it was 0.49%; in test [6], 0.13%. Moreover, the % activity, P1 position came to 0.2% in test [7]; 0.45% in test [8]; 0% in test [9]; 0.7% in test [10]; 0.3% in [11]; 0.12% in test [12]. Also, the % activity, P1 position stood at 2.34% in test [13]; 0% in test [14]; 0% in test [15]; 0.17% in test [16]; 0.07% in [17]; 0% in test [18]. Also, in the test with Ac-Ala-Arg-Leu-Arg-ACC, the % activity, P1 position stood at 100%.

Ac-KQFR(SEQ ID NO: 4)-kt (peptide): the Ki is greater than 20000 nM with recombinant thrombin [19], 78.8 nM in the test with Factor Xa [20] and 58 nM in [21]. For the same molecule, the IC50 of enzyme inhibition in test [22] turned out to be 470 nM.

B1: Ac-RQLR(SEQ ID NO: 6)-kt (peptide)
peptide: Ac-RQLR-kt
SMILES: CC(=O)N[C@@H](CCCNC(=N)N)C(=O)N[C@@H](CCC(N)=O)C(=O)N[C@@H](CC(C)C)C(=O)N[C@@H](CCCNC(=N)N)C(=O)c1nccs1
Regarding B1, the Ki in the test with recombinant thrombin [19] was greater than 20000 nM; with Factor Xa [20] it was 8.1 nM; in test [21], 60 nM; in test [25], 0.32 nM; in test [26], 0.28 nM. For the same molecule, the IC50 of enzyme inhibition in [23] amounted to 1 nM; in test [24], 1 nM; in test [22], 270 nM.

B2: Ac-WRLR(SEQ ID NO: 9)-kt (peptide)
peptide: Ac-WRLR-kt
SMILES: CC(=O)N[C@@H](Cc1c[nH]c2ccccc12)C(=O)N[C@@H](CCCNC(=N)N)C(=O)N[C@@H](CC(C)C)C(=O)N[C@@H](CCCNC(=N)N)C(=O)c1nccs1
Take B2: the Ki in test [21] stood at 21 nM; in [25], 5.5 nM; in test [26], 0.21 nM. Moreover, the IC50 of enzyme inhibition is 31 nM in test [23], 0.3 nM in test [24] and 275 nM in test [22].

B3: Ac-SHLR(SEQ ID NO: 11)-kt (peptide)
peptide: Ac-SHLR-kt
SMILES: CC(=O)N[C@@H](CO)C(=O)N[C@@H](Cc1c[nH]cn1)C(=O)N[C@@H](CC(C)C)C(=O)N[C@@H](CCCNC(=N)N)C(=O)c1nccs1
In the case of B3, the Ki in test [21] is 332 nM; in test [25], 104 nM; in test [26], 0.6 nM. The IC50 of enzyme inhibition worked out at 560 nM in [23], 5 nM in [24] and 1800 nM in test [22].

B4: Ac-WKLR(SEQ ID NO: 12)-kt (peptide)
peptide: Ac-WKLR-kt
SMILES: CC(=O)N[C@@H](Cc1c[nH]c2ccccc12)C(=O)N[C@@H](CCCCN)C(=O)N[C@@H](CC(C)C)C(=O)N[C@@H](CCCNC(=N)N)C(=O)c1nccs1
For the molecule B4, the inhibition constant Ki in test [21] was determined as 56 nM; in test [25], 8.6 nM; in [26] it was 0.55 nM. The IC50 of enzyme inhibition in test [23] stood at 97 nM; in test [24], 4 nM; in [22], 320 nM.

B5: Ac-KQLR(SEQ ID NO: 1)-Kbt (peptide)
peptide: Ac-KQLR-Kbt
SMILES: CC(=O)N[C@@H](CCCCN)C(=O)N[C@@H](CCC(N)=O)C(=O)N[C@@H](CC(C)C)C(=O)N[C@@H](CCCNC(=N)N)C(=O)c1nc2ccccc2s1
For the molecule B5, the fold change of potency against thiazole 5 in test [27] worked out at 2 fold. In addition, the Ki in test [21] is 30 nM; in test [28], 0.55 nM; in test [29], 0.09 nM; with Trypsin it was 0.24 nM; with recombinant thrombin [30], greater than 20000 nM; in the test with Factor Xa [31], 129 nM.

B6: matriptase (Charles Craik, UCSF), recombinant (enzyme)
chain: VVGGTDADEGEWPWQVSLHALGQGHICGASLISPNWLVSAAHCYIDDRGFRYSDPTQWTAFLGLHDQSQRSAPGVQERRLKRIISHPFFNDFTFDYDIALLELEKPAEYSSMVRPICLPDASHVFPAGKAIWVTGWGHTQYGGTGALILQKGEIRVINQTTCENLLPQQITPRMMCVGFLSGGVDSCQGDSGGPLSSVEADGRIFQAGVVSWGDGCAQRNKPGVYTRLPLFRDWIKENTGV
On to B6, for which the Km of fluorogenic substrate with Boc-QAR-AMC was determined as 93 µM.

B7: Ac-SRLR(SEQ ID NO: 15)-kt (peptide)
peptide: Ac-SRLR-kt
SMILES: CC(=O)N[C@@H](CO)C(=O)N[C@@H](CCCNC(=N)N)C(=O)N[C@@H](CC(C)C)C(=O)N[C@@H](CCCNC(=N)N)C(=O)c1nccs1
Take B7: the figures for the Ki in test [21], in [25] and in [26] were 24 nM, 5.8 nM and 0.68 nM, respectively. Also, the values for the IC50 of enzyme inhibition in test [23], in test [24] and in test [22] were 24 nM, 5 nM and 303 nM, respectively.

B8: Ac-SKLR(SEQ ID NO: 10)-kt (peptide)
peptide: Ac-SKLR-kt
SMILES: CC(=O)N[C@@H](CO)C(=O)N[C@@H](CCCCN)C(=O)N[C@@H](CC(C)C)C(=O)N[C@@H](CCCNC(=N)N)C(=O)c1nccs1
As to B8, the inhibition constant (Ki) with recombinant thrombin [19] is greater than 20000 nM; in the test with Factor Xa [20], 3060 nM; in test [21] it was 81 nM; in test [25] it was 58 nM; in test [26], 1.2 nM. The results for the IC50 of enzyme inhibition in test [23] and in test [22] were 48 nM and 560 nM, respectively.

B9: Ac-SKFR(SEQ ID NO: 13)-kt (peptide)
peptide: Ac-SKFR-kt
SMILES: CC(=O)N[C@@H](CO)C(=O)N[C@@H](CCCCN)C(=O)N[C@@H](Cc1ccccc1)C(=O)N[C@@H](CCCNC(=N)N)C(=O)c1nccs1
For B9, the inhibitory constant (Ki) with recombinant thrombin [19] is greater than 2000 nM; in the test with Factor Xa [20], 530 nM; in test [21], 57 nM; in test [25], 3.03 nM; in test [26], 8.5 nM. Besides, the IC50 of enzyme inhibition amounted to 34 nM in test [23], 51 nM in [24] and 520 nM in test [22].
